According to patent US20090208476A1 (published 2009):
Where no end group is shown, it is not given here.

T1: Plasmodium falciparum MSP1-19 (C-terminal fragment of merozoite surface protein 1) (Plasmodium falciparum, UniProt Q8I0U8 1607-1699)
T1 construct: domain: MSP1-19; also called Pf MSP1-19; PfMSP1-19
T1 sequence: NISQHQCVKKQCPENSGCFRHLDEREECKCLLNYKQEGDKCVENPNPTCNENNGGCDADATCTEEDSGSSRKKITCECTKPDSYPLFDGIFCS

T2: DC-SIGN (DC-specific intercellular adhesion molecule 3-grabbing nonintegrin) (UniProt Q9NNX6 62-404, limits assumed)
T2 sequence (looked up): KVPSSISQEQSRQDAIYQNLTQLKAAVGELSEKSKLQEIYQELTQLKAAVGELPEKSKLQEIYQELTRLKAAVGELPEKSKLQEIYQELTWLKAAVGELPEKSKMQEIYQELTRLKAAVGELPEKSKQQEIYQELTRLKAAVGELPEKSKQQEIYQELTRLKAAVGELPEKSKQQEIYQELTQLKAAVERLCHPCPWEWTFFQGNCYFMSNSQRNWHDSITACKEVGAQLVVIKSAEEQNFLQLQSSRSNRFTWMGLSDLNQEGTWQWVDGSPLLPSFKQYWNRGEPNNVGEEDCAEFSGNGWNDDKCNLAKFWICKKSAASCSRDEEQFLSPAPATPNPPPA

B1: GST-Azu 36-128 (GST fused to azurin amino acids 36 to 128) (other)
chain: PGNLPKNVMGHNWVLSTAADMQGVVTDGMASGLDKDYLKPDDSRVIAHTKLIGSGEKDSVTFDVSKLKEGEQYMFFCTFPGHSALMKGTLTLK
notes: The azurin fragment was cloned into the BamHI/EcoRI sites of pGEX-5X; not shown: glutathione S-transferase from the commercial vector pGEX-5X
B2: GST-Azu 88-113 (GST fused to azurin amino acids 88 to 113) (other)
chain: {GST}-GSGEKDSVTFDVSKLKEGEQYMFFCT
modifications: also: GST fusion, vector linker residues not given here
notes: not shown: glutathione S-transferase from the commercial vector pGEX-5X
B3: GST-Azu 36-89 (GST fused to azurin amino acids 36 to 89) (other)
chain: {GST}-PGNLPKNVMGHNWVLSTAADMQGVVTDGMASGLDKDYLKPDDSRVIAHTKLIGS
modifications: also: GST fusion, vector linker residues not given here
notes: also called pGST-azu 36-89 product; not shown: glutathione S-transferase from the commercial vector pGEX-5X

Legend:
[1] = biological target: T1, Plasmodium falciparum MSP1-19 …; test: SPR, MSP1-19 immobilised on CM5 chip
CD4 = biological target: T3, CD4 (UniProt P01730 26-396); test: SPR, CD4 immobilised on CM5 chip, equilibrium fit Req=Rmax/(1+(Kd/C))
T3 construct: Bought protein; also called CD4 (Protein Sciences Corp.)

[2] = biological target: T2, DC-SIGN (DC-specific intercellular …); test: SPR, DC-SIGN immobilised on CM5 chip, equilibrium fit Req=Rmax/(1+(Kd/C))

Binder	Kd [1] [nM]	Kd (CD4) [nM]	Kd [2] [nM]
B1	24.5	0.34	
B2			5.98
B3	20.9		
